# T1: ALA-5 mutagenic UNI-tag peptide (DKGEAPKDRFSA)
# T1 construct: UNI-tag with alanine at position 5 (V5A); also called Uni-TAG-ALA 5; negative control
# T1 peptide: DKGEAPKDRFSA
# T2: ALA-10 mutagenic UNI-tag peptide (DKGEVPKDRASA)
# T2 construct: UNI-tag with alanine at position 10 (F10A); also called Uni-Tag-ALA 10; positive control
# T2 peptide: DKGEVPKDRASA
# Assays:
# [1] = biological target: T1, ALA-5 mutagenic UNI-tag peptide …; test: dot blot, peptide on PVDF membrane
# [2] = biological target: T2, ALA-10 mutagenic UNI-tag peptide …; test: dot blot, peptide on PVDF membrane
Binder,binding result [1],binding result [2]
"MDG827 monoclonal antibody (MDG827 hybridoma supernatant) (antibody, V domains shown, detected with anti-IgG2a secondary antibody; Used as hybridoma supernatant; also called MDG827 antibody; MDG827 Ab) VH: EVQLEESGGGLVQPGRSMKLSCAASGFTFSDYGMAWVLQGPTKGLEWVASISYDGNRPYYRDSVKGRFTISRDNAKSTLYLQMESLRSEDTATYYCVKDLFEIGDFDYWGQGVMVTVSS VL: DVLMTQTPVSLPVSLGGQVSISCRSSQSLVHSDGNTYLHWYLQKPGQSPQLLIYRVSNRFSGVPDRFTGSGSGTDFTLKISRVEPEDLGVYYCLQSTHFPLTFGSGTKLEIKR",no binding,binds
"recombinant monoclonal MDG827 antibody (produced in HEK293 cells) (antibody, V domains shown, used as culture supernatant; Detected with anti-rat IgG2a; also called recombinantly produced MDG827; anti-TRBC MDG827 antibody) VH: EVQLEESGGGLVQPGRSMKLSCAASGFTFSDYGMAWVLQGPTKGLEWVASISYDGNRPYYRDSVKGRFTISRDNAKSTLYLQMESLRSEDTATYYCVKDLFEIGDFDYWGQGVMVTVSS VL: DVLMTQTPVSLPVSLGGQVSISCRSSQSLVHSDGNTYLHWYLQKPGQSPQLLIYRVSNRFSGVPDRFTGSGSGTDFTLKISRVEPEDLGVYYCLQSTHFPLTFGSGTKLEIKR",no binding,

# — patent publication EP4635980A1 (Medigene Immunotherapies GmbH, dated 2025)
